Data reported in paper PMC12990809.

Experiments:
Experiment in all cases: pulldown
Settings in all cases: 20 nM protein, 1.5 uM RNA pool; 20 mM HEPES pH 7.8, 70 mM KCl, 10 mM NaCl, 10% glycerol, 2 mM DTT, 0.1 ug/uL BSA; 30 min, 4 C
[1] = target: T1, SRSF3 (Tetraodon nigroviridis) (UniProt H3C295)
T1 sequence: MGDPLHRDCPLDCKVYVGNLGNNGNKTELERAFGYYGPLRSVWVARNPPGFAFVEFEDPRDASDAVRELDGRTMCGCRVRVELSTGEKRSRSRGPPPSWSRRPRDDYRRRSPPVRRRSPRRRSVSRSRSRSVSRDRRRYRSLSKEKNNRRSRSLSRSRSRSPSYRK

[2] = target: T2, cwf2 (Schizosaccharomyces pombe) (UniProt P87126)
T2 sequence: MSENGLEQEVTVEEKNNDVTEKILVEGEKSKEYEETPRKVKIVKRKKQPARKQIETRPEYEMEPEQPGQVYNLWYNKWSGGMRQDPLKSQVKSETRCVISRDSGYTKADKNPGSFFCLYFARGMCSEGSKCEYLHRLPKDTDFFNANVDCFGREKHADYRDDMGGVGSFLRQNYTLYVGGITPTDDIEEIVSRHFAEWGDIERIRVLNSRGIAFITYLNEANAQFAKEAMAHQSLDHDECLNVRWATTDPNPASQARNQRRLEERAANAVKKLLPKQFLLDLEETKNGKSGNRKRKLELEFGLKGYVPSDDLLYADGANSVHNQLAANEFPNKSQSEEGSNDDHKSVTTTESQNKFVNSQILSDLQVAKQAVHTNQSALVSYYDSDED

[3] = target: T3, CBG05471 (Caenorhabditis briggsae) (UniProt A8WZY6)
T3 sequence: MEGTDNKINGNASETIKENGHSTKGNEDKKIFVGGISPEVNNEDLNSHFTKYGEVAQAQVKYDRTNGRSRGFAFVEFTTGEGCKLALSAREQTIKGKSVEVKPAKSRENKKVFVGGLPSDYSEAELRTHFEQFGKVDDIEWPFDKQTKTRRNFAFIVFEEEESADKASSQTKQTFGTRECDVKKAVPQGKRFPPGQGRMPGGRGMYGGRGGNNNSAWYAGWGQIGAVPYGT

[4] = target: T4, Smp_036270 E366G (Schistosoma mansoni) (UniProt A0A3Q0KEI3)
T4 sequence: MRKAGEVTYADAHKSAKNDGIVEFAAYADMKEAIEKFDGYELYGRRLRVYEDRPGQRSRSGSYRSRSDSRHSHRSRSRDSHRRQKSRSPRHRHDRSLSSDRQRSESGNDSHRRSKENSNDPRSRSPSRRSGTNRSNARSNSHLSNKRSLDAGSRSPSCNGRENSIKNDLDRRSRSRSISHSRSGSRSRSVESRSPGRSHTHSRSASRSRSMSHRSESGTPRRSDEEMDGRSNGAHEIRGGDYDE

[5] = target: T5, Y57G11C.36 (Caenorhabditis elegans) (UniProt Q8I4C4)
T5 sequence: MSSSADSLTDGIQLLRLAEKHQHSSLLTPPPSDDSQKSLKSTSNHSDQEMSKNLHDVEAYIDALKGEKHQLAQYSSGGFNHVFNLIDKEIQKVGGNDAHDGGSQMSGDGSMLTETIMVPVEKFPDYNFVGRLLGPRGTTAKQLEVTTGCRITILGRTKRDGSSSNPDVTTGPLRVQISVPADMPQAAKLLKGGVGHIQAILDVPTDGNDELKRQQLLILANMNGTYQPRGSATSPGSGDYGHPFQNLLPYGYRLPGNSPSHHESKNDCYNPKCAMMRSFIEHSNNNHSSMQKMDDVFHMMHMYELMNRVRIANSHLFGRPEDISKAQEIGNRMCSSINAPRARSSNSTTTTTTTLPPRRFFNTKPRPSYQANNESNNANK

[6] = target: T6, nop12 (Schizosaccharomyces pombe) (UniProt O13741)
T6 sequence: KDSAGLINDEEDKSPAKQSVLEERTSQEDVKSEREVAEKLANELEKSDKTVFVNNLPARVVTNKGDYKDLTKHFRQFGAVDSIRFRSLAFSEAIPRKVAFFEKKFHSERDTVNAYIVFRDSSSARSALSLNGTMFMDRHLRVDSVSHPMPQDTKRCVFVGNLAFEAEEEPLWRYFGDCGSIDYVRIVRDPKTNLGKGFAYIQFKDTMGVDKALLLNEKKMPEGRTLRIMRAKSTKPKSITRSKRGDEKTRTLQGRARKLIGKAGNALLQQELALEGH

[7] = test system: T7, PK27602.1 (Cannabis sativa)
T7 sequence: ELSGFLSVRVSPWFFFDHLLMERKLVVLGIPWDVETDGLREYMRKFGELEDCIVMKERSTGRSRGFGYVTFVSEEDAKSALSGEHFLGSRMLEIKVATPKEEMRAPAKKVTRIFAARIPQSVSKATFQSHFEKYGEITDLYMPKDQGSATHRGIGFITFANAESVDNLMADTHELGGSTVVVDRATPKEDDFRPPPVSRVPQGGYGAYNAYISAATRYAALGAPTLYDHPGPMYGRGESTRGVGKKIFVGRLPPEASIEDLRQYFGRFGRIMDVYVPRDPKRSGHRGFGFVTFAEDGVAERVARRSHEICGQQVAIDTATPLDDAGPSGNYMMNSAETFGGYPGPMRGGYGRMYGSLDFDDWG

[8] = target: T8, CBG03563 (Caenorhabditis briggsae) (UniProt A8WVC5)
T8 sequence: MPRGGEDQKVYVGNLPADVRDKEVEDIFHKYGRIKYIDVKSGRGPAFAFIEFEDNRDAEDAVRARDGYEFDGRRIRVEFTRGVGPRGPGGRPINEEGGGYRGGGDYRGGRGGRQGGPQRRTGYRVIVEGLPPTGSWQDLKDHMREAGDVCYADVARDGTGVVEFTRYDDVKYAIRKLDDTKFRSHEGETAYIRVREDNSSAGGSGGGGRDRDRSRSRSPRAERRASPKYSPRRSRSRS

AACAACG [RNAcompete motif RNCMPT00419]
binding signal (z-score (mean of top ten 7-mers)) [1]: 7.35

AANUUG [RNAcompete motif RNCMPT00432]
binding signal (z-score (mean of top ten 7-mers)) [2]: 17.4

AGUAA [RNAcompete motif RNCMPT00422]
binding signal (z-score (mean of top ten 7-mers)) [3]: 9.16

CGGAGG [RNAcompete motif RNCMPT00417]
binding signal (z-score (mean of top ten 7-mers)) [4]: 13.5

CUACUAG [RNAcompete motif RNCMPT00423]
binding signal (z-score (mean of top ten 7-mers)) [5]: 15.3

GAACG [RNAcompete motif RNCMPT00412]
binding signal (z-score (mean of top ten 7-mers)) [6]: 25.9

GAGUGA [RNAcompete motif RNCMPT00431]
binding signal (z-score (mean of top ten 7-mers)) [7]: 12.8

GGACGANG [RNAcompete motif RNCMPT00433]
binding signal (z-score (mean of top ten 7-mers)) [8]: 7.68
